41 sequences from the nanobody polyreactivity screen of Harvey et al. (2022) can be followed below.

The nature of this series: yeast display, Sf9 membrane polyspecificity reagent, FACS + sequencing; frameworks hold sequencing errors. Put shortly: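 After 36–48 hours of galactose induction, yeast (Saccharomyces cerevisiae BJ5465) displaying a synthetic nanobody library were stained at 4 °C for 1 hour with 10% biotinylated, detergent-solubilized Sf9 membrane reagent. Streptavidin microbeads enriched the stained cells before FACS sorting into low and high (top ~1%) gates on anti-HA and streptavidin fluorescence. Each clone's polyreactivity label reflects its gate of origin.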
Turning to “QVQLVESGGGLVQAGGSLRLSCAASGSIFYQYAMGWYRQARGKERELVAAITWDGSRTYYADSVKGRFTISRDNAKNTVYLQMNSLKPEDTAVYYCNANLAWRRYDGTYNYWGQGSQVTVSS”, the “polyreactivity (PSR sort gate)” value was “high polyreactivity”.

As for “QVQLVESGGGLVQAGGSLRLSCAASGSIFYQYGMGWYRQAPGKERELVAAITYDDDSTYYADSVKGRFTISRDNAKNTVYLQMNSLKPEDTAVYYCAAYYYKLEYDYWGQGTQVTVSS”, the “polyreactivity (PSR sort gate)” value is “high polyreactivity”. The entry for “QVQLVESGGGLVQAGGSLRLSCAASGSIFYRNAMGWYRQAPGKERELVAAISSGTSTYYADSVKGRFTISRDNAKNTVYLQMNSLKPEDTAVYYCAKQYAFVPWWSRYHGELDYWGQGTQVTVSS” is “low polyreactivity”.

Regarding “QVQLVESGGGLVQAGGSLRLSCAASGSIFYRNAMGWYRQAPGKERELVAAISWRGGSTYYADSVKGRFTISRDNAKNTVFLQMNSLKPEDTAVYYCAAAQRVNHVWYDYWGQGTQVTVSS”, the “polyreactivity (PSR sort gate)” value is recorded as “low polyreactivity”. Next, “QVQLVESGGGLVQAGGSLRLSCAASGSIFYRNAMGWYRQAPGNERELVAAITSGASTYYADSVKGRFTISRDNAKNTVYLQMNSLKPEDTEVYYCAADSDSQWGMDYWGQGTQVTVSS”: “low polyreactivity”. The entry for “QVQLVESGGGLVQAGGSLRLSCAASGSIFYRNVMGWYRQAPGKERELVAAISQRGGSTYYADSVKGRFTISRDNAKNTVYLQMNSLKPEDTAVYYCIAASRGAGTSIWSWYDHWGQGTQVTVSS” is “low polyreactivity”; for “QVQLVESGGGLVQAGGSLRLSCAASGSIFYRNVMGWYRQAPGKERELVAVITGSGDSTFYADSVKGRFTISRDNAKNTVYLQMNSLKPEDTAVYYCNARQVSGGYYYWGQGTQVTVSW” it is “low polyreactivity”. Next, “QVQLVESGGGLVQAGGSLRLSCAASGSIFYRYAMGWYRQAPGKERELVAAITSTGSRTFYADSVKVRFTISRDNAKNTVYLQMNSLKPEDTAVYYCAADARYNGYHGVDYWGQGTLVTVSS”: “high polyreactivity”; “QVQLVESGGGLVQAGGSLRLSCAASGSIFYRYAMGWYRQAPGKESELVAAITQSTDSTYYADSVKGRFTISRDNAKNTVYLQMNSLKPEDTAVYYCAAYLVYYRPYAYGYWGQGTQVTVSS”: “low polyreactivity”. In the case of “QVQLVESGGGLVQAGGSLRLSCAASGSIFYRYTMGWYRQAPGKERELVAAISSRGGSTYYADSVKGRFTISRDNAKNTVYLQMNSLKPEDTAVYYCAARFSYWAPSKGYGYWGQGTQVTVSS”, the “polyreactivity (PSR sort gate)” value is given as “high polyreactivity”.

Regarding “QVQLVESGGGLVQAGGSLRLSCAASGSIFYRYTMGWYRQAPGKERELVAVISRRGGSTYYADSVKGRFTISRDNAKNTVYLQMNSLKPEDTAVYYCAVRQYRTSVRQGNTLWDDYWGQGTQVTVSS”, the “polyreactivity (PSR sort gate)” value is recorded as “high polyreactivity”. The entry for “QVQLVESGGGLVQAGGSLRLSCAASGSIFYSNAMGWYRQAPGKERELVAAIHWSGGSTYYADSVKGRFTISRDNAKNTFYLLMNSLKPEDTAVYYCAADYGWGPIYDYWGQGTQVNVSS” is “low polyreactivity”. The entry for “QVQLVESGGGLVQAGGSLRLSCAASGSIFYSNAMGWYRQAPGKERELVAAINWSGVRTYYADSVKGRFTISRDNAKNTVYLQMNSLKPEDTAVYYCAAKTYQQQIVRPMYYWGQCTQVTVSS” is “high polyreactivity”. Next, “QVQLVESGGGLVQAGGSLRLSCAASGSIFYSNAMGWYRQAPGKERELVAAITVGGGRTYYADSVKGRFTISRDNAKYTVYLQMNSLNPEDTAVYYCAADSHASTYDYWGQGTQVTVSS”: “low polyreactivity”.

For “QVQLVESGGGLVQAGGSLRLSCAASGSIFYSNAMGWYRQAPGKERELVADISWSDGSTYYADSVKGRFTISRDNAKNNVYLQMNSLKPEDTEVYYCARKAGYSYFRRYDYWGQGTQVTVSS”, the “polyreactivity (PSR sort gate)” value is recorded as “low polyreactivity”.

For the sequence “QVQLVESGGGLVQAGGSLRLSCAASGSIFYSNKGWYRQAPGKEREFVAAISGSGVRTYYADSVKGRFTISRDNAKNTVYLQMNSLKPEDTAVYYCNAGRRQDYRYIYWGQGTQVTVSS”, the “polyreactivity (PSR sort gate)” value is “high polyreactivity”.

For “QVQLVESGGGLVQAGGSLRLSCAASGSIFYSNTIGWYRQAPRKERELDAAITSGGGTNYADSVKGRFTISRDNAKNTVYLQMNSLKPEDTAVYYCAAVTKTLYRSYFLMYYWGQGTQVTVSS”, the “polyreactivity (PSR sort gate)” value is “high polyreactivity”. Next, “QVQLVESGGGLVQAGGSLRLSCAASGSIFYSNVMGWYRQAPGKERELVARITDAGSTNYADSVKGRFTISRDNAKNTVYLQMNSLKPEDTAVYYCNARLVIYTYDYWGQGTQVTVSS”: “low polyreactivity”; “QVQLVESGGGLVQAGGSLRLSCAASGSIFYSNVMGWYRQAPGKERELVARITVAGSTNYADSVKGRFTISRDNAKNTVYLQMNSLKPEDTAVYYCNARLVIYTYDYWGQGTQVTVSS”: “low polyreactivity”; “QVQLVESGGGLVQAGGSLRLSCAASGSIFYSNVMGWYRQAPGKERELVASITNGGGTYYADSVKGRFTISRDNAKTTVYLQMNSLKPEDTAVYYCARRVYYWGQGTQVTVSS”: “high polyreactivity”.

On to “QVQLVESGGGLVQAGGSLRLSCAASGSIFYSNVMGWYRQAPGQERELVARITDAGSTNYADSVKGRFTISRDNAKHTVYFQMNSLKPEDTAVYYCNARLVIYTFDYWGQGTLVTVSS”, for which the “polyreactivity (PSR sort gate)” value is “low polyreactivity”. The entry for “QVQLVESGGGLVQAGGSLRLSCAASGSIFYSYAMAWYRQAPGKERELVAAITSGGSTYYADSVKGRFTISRDNAKNTVYLQMNTLKPEDTAVYYCAKRWPAYWGKGHGSWGQGTQVTVSS” is “high polyreactivity”; for “QVQLVESGGGLVQAGGSLRLSCAASGSIFYSYAMGWYIQAHGKERELVARINYRGGSTYYADSVKGRFTISRDNAKNTVYLQMNSLKPEDTAVFYCAKRSYWSSNPRDYWGQGTKVTVSS” it is “high polyreactivity”. Next, “QVQLVESGGGLVQAGGSLRLSCAASGSIFYSYAMGWYRQAPGKERELVAAISRSGVSTYYADSVKGRFTISRDNAKNTVYLQMNSLKPEDTAVYYCASPYFVSYQGYDYWGQGTQVTVSS”: “high polyreactivity”; “QVQLVESGGGLVQAGGSLRLSCAASGSIFYSYGMGWYRQAPGKERELVAAITSSGGGTYYADSVKGRFTISRDNAKNTVYLQMNSLKPEDTAVYYCAADDRNYNYYPTFYYWGQGTQVTVSS”: “low polyreactivity”. Next, “QVQLVESGGGLVQAGGSLRLSCAASGSIFYSYVMGWYRQAPGKERELVAAISRNGQSTYYADSVKGRFTISRDNAKNTVYLQMNSLKPEDTAVYYCATRGTKSIKDVPGIRYGYWGQGTQVTVSS”: “high polyreactivity”; “QVQLVESGGGLVQAGGSLRLSCAASGSIFYTYAMGWYRQAPGKERELVAGISWRGGSTYYADSVKGRYTISRDNAKNTVYLQMNSLNPEDTAVYYCAASYFWDRVPGRGIHDYWGQGTQVTVSS”: “high polyreactivity”; “QVQLVESGGGLVQAGGSLRLSCAASGSIFYTYAMGWYRQAPGKERELVASITNDDSTNYADSVKGRFTISRDNAKKTVYLQMNSLKPEDTAVYYCADDSNWIYDIEYDYWGQGTQVTVSS”: “low polyreactivity”.

“QVQLVESGGGLVQAGGSLRLSCAASGSIFYVNAMGWYRQAPGKERELVASITASGGTTYYADSVKGRFTISRDNAKNNVYLQMNSLKPEDTAVYYCAATFIQVVVNVQLYDYDYWGQGTQVTVSS”: the “polyreactivity (PSR sort gate)” value is “low polyreactivity”. Next, “QVQLVESGGGLVQAGGSLRLSCAASGSIFYVNDMGWYRQAPGKERELVAAISSTGSTKYADSVKGRFTISRDNAKNTVYLQMNSLKPEDTAVYYCAKEPGHRFEFDYWGQGTQVTVSS”: “low polyreactivity”; “QVQLVESGGGLVQAGGSLRLSCAASGSIFYVYAMGWYRQAPGKERELVAAINTSSGDTYYADSVKGRFTISRDNAKNTVYLQMNSLKPEDTAVYYCNARTRSSYTIGSYLLSYDYWGQGTQVTVSS”: “high polyreactivity”. For the sequence “QVQLVESGGGLVQAGGSLRLSCAASGSIFYVYAMGWYRQAPGKERELVAAITSSGTTNYADSVKGRFTISRDNAKNTVYLQMNSLKPEDTAVYYCAADAYSGAYFTYLGEIYDYWGQGTQVTVSS”, the “polyreactivity (PSR sort gate)” value is on record as “low polyreactivity”.

In the case of “QVQLVESGGGLVQAGGSLRLSCAASGSIFYVYAMGWYRQAPGKERELVATISTGGSTYYADSVKGRFTISRDNAKNTVYLQMNSLKPEDTAVYYCNAQFTPRYRGGYDSWGQCTQVTVSS”, the “polyreactivity (PSR sort gate)” value was “low polyreactivity”. The entry for “QVQLVESGGGLVQAGGSLRLSCAASGSIFYVYGMGWYRQAPGKERELVAAITRSGGIKYYADSVKGRFTISRDNAKNTVYLLMNSLKPEDTAVYYCAALSYRYTDKVVYWGQGTQVTVSS” is “low polyreactivity”.

On to “QVQLVESGGGLVQAGGSLRLSCAASGSIFYVYVMGWYRQAPGKERELVAAIDTGGGDTYYADSVKGRFTISRDNAKNTVYLQMNSLKPEDTAVYYCAAELYDYGDLYYSEYDYWGQGTQVTVSS”, for which the “polyreactivity (PSR sort gate)” value was “low polyreactivity”. The entry for “QVQLVESGGGLVQAGGSLRLSCAASGSIFYVYVMGWYRQAPGKERELVAGISYRGGSTYYADSVKGRFTISRDNAKNTVYLQMNSLKPEDTAVYYCNAGVWTYWHIEMDYWGQGTQVTVSS” is “low polyreactivity”; for “QVQLVESGGGLVQAGGSLRLSCAASGSIFYWNTMGWYRQAPGKERELVAAISYSGGSTYYADSVKGRFTISRDNAKNTVYLQMNSLKPEDTAVYYCAAKYYNRFYYWGQGTQVTVSS” it is “high polyreactivity”. The entry for “QVQLVESGGGLVQAGGSLRLSCAASGSIFYWYAMGWYRPAPGKERELVAAITSSSGRTRYADSVKGRFTISRDNAKNTVYLQMNSLKPEDTAVYYCAAGRWGSYYTPRPYGYWGQGTQVTVSS” is “high polyreactivity”; for “QVQLVESGGGLVQAGGSLRLSCAASGSIFYWYAMGWYRQAPGKEREFVAAISRSDGSTYYADSLKRRFTISRDNAKNTVYLEMNRLKPEDTAVYYCAAERYYFPRSYRYGYWGQGTQVTVSS” it is “low polyreactivity”. Next, “QVQLVESGGGLVQAGGSLRLSCAASGSIFYWYAMGWYRQAPGKERELVAGITGRGGSTYYADSVKGRFTISRDNAKNTVYLQMNSLKPEDTAVYYCAARYTRWRYNYKDYDYWGQGTQVTVSS”: “high polyreactivity”. With “QVQLVESGGGLVQAGGSLRLSCAASGSIFYYNAKGWYRQAPGKERELVAGIRRSGDSTYYADSVKGRFTISRDNAKNTVYLQLNRLKPEDTAVYYCAADRVYEASQGYTYFDYDYWGQGTQVTVSS”, the “polyreactivity (PSR sort gate)” value is “low polyreactivity”.
